Experimental data taken from paper PMC10958042.

B1: ATGL (PNPLA2, patatin-like phospholipase domain-containing protein 2), human, full length / CGI-58 (ABHD5, 1-acylglycerol-3-phosphate O-acyltransferase ABHD5), human (parent)
chain 1: MFPREKTWNISFAGCGFLGVYYVGVASCLREHAPFLVANATHIYGASAGALTATALVTGVCLGEAGAKFIEVSKEARKRFLGPLHPSFNLVKIIRSFLLKVLPADSHEHASGRLGISLTRVSDGENVIISHFNSKDELIQANVCSGFIPVYCGLIPPSLQGVRYVDGGISDNLPLYELKNTITVSPFSGESDICPQDSSTNIHELRVTNTSIQFNLRNLYRLSKALFPPEPLVLREMCKQGYRDGLRFLQRNGLLNRPNPLLALPPARPHGPEDKDQAVESAQAEDYSQLPGEDHILEHLPARLNEALLEACVEPTDLLTTLSNMLPVRLATAMMVPYTLPLESALSFTIRLLEWLPDVPEDIRWMKEQTGSICQYLVMRAKRKLGRHLPSRLPEQVELRRVQSLPSVPLSCAAYREALPGWMRNNLSLGDALAKWEECQRQLLLGLFCTNVAFPPEALRMRAPADPAPAPADPASPQHQLAGPAPLLSTPAPEARPVIGALGL
chain 2: MAAEEEEVDSADTGERSGWLTGWLPTWCPTSISHLKEAEEKMLKCVPCTYKKEPVRISNGNKIWTLKFSHNISNKTPLVLLHGFGGGLGLWALNFGDLCTNRPVYAFDLLGFGRSSRPRFDSDAEEVENQFVESIEEWRCALGLDKMILLGHNLGGFLAAAYSLKYPSRVNHLILVEPWGFPERPDLADQDRPIPVWIRALGAALTPFNPLAGLRIAGPFGLSLVQRLRPDFKRKYSSMFEDDTVTEYIYHCNVQTPSGETAFKNMTIPYGWAKRPMLQRIGKMHPDIPVSVIFGARSCIDGNSGTSIQSLRPHSYVKTIAILGAGHYVYADQPEEFNQKVKEICDTVD

Variants of: B1
Experiment: LUMIER: Protein A-ATGL variant and firefly luciferase-partner co-expressed in HEK293T, lysates immunoprecipitated on IgG-coated plates, co-precipitated partner measured as luciferase luminescence
Settings: with CGI-58 (ABHD5, 1-acylglycerol-3-phosphate O-acyltransferase ABHD5), transient co-transfection, IgG-coated LUMITRAC plates, 2 h at 4 °C, three PBS washes, Bright-Glo luciferase reagent, triplicates per assay, two …, scale: log2 fold change of co-immunoprecipitated luminescence relative to wild-type ATGL within each experiment

| Variant | screen value (parent: 0.32, not graded) | screen value (parent: 0.45, not graded) |
| --- | --- | --- |
| chain 1 MFPREKTWNISFAGCGFLGVYYVGVASCLREHAPALVANATHIYGASAGALTATALVTGVCLGEAGAKFIEVSKEARKRFLGPLHPSFNLVKIIRSFLLKVLPADSHEHASGRLGISLTRVSDGENVIISHFNSKDELIQANVCSGFIPVYCGLIPPSLQGVRYVDGGISDNLPLYELKNTITVSPFSGESDICPQDSSTNIHELRVTNTSIQFNLRNLYRLSKALFPPEPLVLREMCKQGYRDGLRFLQRNGLLNRPNPLLALPPARPHGPEDKDQAVESAQAEDYSQLPGEDHILEHLPARLNEALLEACVEPTDLLTTLSNMLPVRLATAMMVPYTLPLESALSFTIRLLEWLPDVPEDIRWMKEQTGSICQYLVMRAKRKLGRHLPSRLPEQVELRRVQSLPSVPLSCAAYREALPGWMRNNLSLGDALAKWEECQRQLLLGLFCTNVAFPPEALRMRAPADPAPAPADPASPQHQLAGPAPLLSTPAPEARPVIGALGL [chain 1 F35A] | -0.0512 | -0.207 |
| chain 1 MFPREKTWNISFAGCGFLGVYYVGVASCLREHAPELVANATHIYGASAGALTATALVTGVCLGEAGAKFIEVSKEARKRFLGPLHPSFNLVKIIRSFLLKVLPADSHEHASGRLGISLTRVSDGENVIISHFNSKDELIQANVCSGFIPVYCGLIPPSLQGVRYVDGGISDNLPLYELKNTITVSPFSGESDICPQDSSTNIHELRVTNTSIQFNLRNLYRLSKALFPPEPLVLREMCKQGYRDGLRFLQRNGLLNRPNPLLALPPARPHGPEDKDQAVESAQAEDYSQLPGEDHILEHLPARLNEALLEACVEPTDLLTTLSNMLPVRLATAMMVPYTLPLESALSFTIRLLEWLPDVPEDIRWMKEQTGSICQYLVMRAKRKLGRHLPSRLPEQVELRRVQSLPSVPLSCAAYREALPGWMRNNLSLGDALAKWEECQRQLLLGLFCTNVAFPPEALRMRAPADPAPAPADPASPQHQLAGPAPLLSTPAPEARPVIGALGL [chain 1 F35E] | 0.146 | 0.336 |
| chain 1 MFPREKTWNISFAGCGFLGVYYVGVASCLREHAPFLVANATHIYGASAGALTATALVTGVCLGEAGAKFIEVSKEARKRFLGPLHPSFNLVKIIRSFLLKVLPADSHEHASGRLGISLTRVSDGENVIISHFNSKDELIQANVCSGFIPVYCGLIPPSLQGVRYVDGGISDNLPLYELKNTITVSPFSGESDICPQDSSTNIHELRVTNTSIQFNLRNLYRLSKALFPPEPLVLREMCKQGYRDGLRFLQRNGLLNRPNPLLALPPARPHGPEDKDQAVESAQAEDYSQLPGEDHILEHLPARLNEALLEACVEPTDLLTTLSNMLPVRLATAMMVPYTLPLESALSETIRLLEWLPDVPEDIRWMKEQTGSICQYLVMRAKRKLGRHLPSRLPEQVELRRVQSLPSVPLSCAAYREALPGWMRNNLSLGDALAKWEECQRQLLLGLFCTNVAFPPEALRMRAPADPAPAPADPASPQHQLAGPAPLLSTPAPEARPVIGALGL [chain 1 F348E] | -0.83 | -1.02 |
| chain 1 MFPREKTWNISFAGCKFLGVYYVGVASCLREHAPFLVANATHIYGASAGALTATALVTGVCLGEAGAKFIEVSKEARKRFLGPLHPSFNLVKIIRSFLLKVLPADSHEHASGRLGISLTRVSDGENVIISHFNSKDELIQANVCSGFIPVYCGLIPPSLQGVRYVDGGISDNLPLYELKNTITVSPFSGESDICPQDSSTNIHELRVTNTSIQFNLRNLYRLSKALFPPEPLVLREMCKQGYRDGLRFLQRNGLLNRPNPLLALPPARPHGPEDKDQAVESAQAEDYSQLPGEDHILEHLPARLNEALLEACVEPTDLLTTLSNMLPVRLATAMMVPYTLPLESALSFTIRLLEWLPDVPEDIRWMKEQTGSICQYLVMRAKRKLGRHLPSRLPEQVELRRVQSLPSVPLSCAAYREALPGWMRNNLSLGDALAKWEECQRQLLLGLFCTNVAFPPEALRMRAPADPAPAPADPASPQHQLAGPAPLLSTPAPEARPVIGALGL [chain 1 G16K] | -0.139 | 0.515 |
| chain 1 MFPREKTWNISFAGCGFLGVYYVGVASCLREHAPFLVANATHIYGASAGALTATALVTLVCLGEAGAKFIEVSKEARKRFLGPLHPSFNLVKIIRSFLLKVLPADSHEHASGRLGISLTRVSDGENVIISHFNSKDELIQANVCSGFIPVYCGLIPPSLQGVRYVDGGISDNLPLYELKNTITVSPFSGESDICPQDSSTNIHELRVTNTSIQFNLRNLYRLSKALFPPEPLVLREMCKQGYRDGLRFLQRNGLLNRPNPLLALPPARPHGPEDKDQAVESAQAEDYSQLPGEDHILEHLPARLNEALLEACVEPTDLLTTLSNMLPVRLATAMMVPYTLPLESALSFTIRLLEWLPDVPEDIRWMKEQTGSICQYLVMRAKRKLGRHLPSRLPEQVELRRVQSLPSVPLSCAAYREALPGWMRNNLSLGDALAKWEECQRQLLLGLFCTNVAFPPEALRMRAPADPAPAPADPASPQHQLAGPAPLLSTPAPEARPVIGALGL [chain 1 G59L] | -0.404 | -0.665 |
| chain 1 MFPREKTWNISFAGCGFLGVYYVGVASCLREHAPFLVANATHIYGASAGALTATALVTGVCLGEAAAKFIEVSKEARKRFLGPLHPSFNLVKIIRSFLLKVLPADSHEHASGRLGISLTRVSDGENVIISHFNSKDELIQANVCSGFIPVYCGLIPPSLQGVRYVDGGISDNLPLYELKNTITVSPFSGESDICPQDSSTNIHELRVTNTSIQFNLRNLYRLSKALFPPEPLVLREMCKQGYRDGLRFLQRNGLLNRPNPLLALPPARPHGPEDKDQAVESAQAEDYSQLPGEDHILEHLPARLNEALLEACVEPTDLLTTLSNMLPVRLATAMMVPYTLPLESALSFTIRLLEWLPDVPEDIRWMKEQTGSICQYLVMRAKRKLGRHLPSRLPEQVELRRVQSLPSVPLSCAAYREALPGWMRNNLSLGDALAKWEECQRQLLLGLFCTNVAFPPEALRMRAPADPAPAPADPASPQHQLAGPAPLLSTPAPEARPVIGALGL [chain 1 G66A] | -0.000473 | 0.0899 |
